Reference: EP4574844A1 (Numab Therapeutics AG, dated 2025)

B1: PRO4672 (antibody)
chain 1: DVQMTQSPSSLSASVGDRVTITCQASQSISSWVSWYQQKPGKPPKLLIYRGGYLESGVPSRFSASGSGTDFTLTISSLQPEDFATYYCQSTDSSTYGGAFGCGTKVTVLGGGGGSGGGGSGGGGSGGGGSQQVVESGGGLVQPGGSLRLSCAVSGIDLNSYAMTWVRQAPGKCLEWIGYIGSASSTYYASWASGRFTISKDNSKNTVYLQMNSLRAEDSAVYFCARGSTYINIWGQGTLVKVSSEPKSSDKTHTCPPCPAPELLGGPSVFLFPPKPKDTLMISRTPEVTCVVVDVSHEDPEVKFNWYVDGVEVHNAKTKPREEQYNSTYRVVSVLTVLHQDWLNGKEYKCKVSNKALPAPIEKTISKAKGQPREPQVYTLPPCREEMTKNQVSLSCAVKGFYPSDIAVEWESNGQPENNYKTTPPVLDSDGSFFLVSKLTVDKSRWQQGNVFSCSVMHEALHNHYTQKSLSLSPGKGGGGSGGGGSDVQMTQSPSSLSASVGDRVTITCQASQSIGSNLAWYQQKPGKPPKLLIYKGGTLESGVPSRFSGSGSGTDFTLTISSLQPEDFATYYCQSTAGSSRSGNYGYVFGCGTKVTVLGGGGGSGGGGSGGGGSGGGGSQQLVESGGGLVQPGGSLRLSCAASGFSFTNNYYMCWVRQAPGKCLEWIACMLVGAWGNTYYASWANGRFTISKDNSKNTVYLQMNSLRAEDSAVYFCARARDYTWTLGGDPETSGFNLWGQGTLVKVSS
chain 2: not shown
notes: trispecific anti-PDL1 x CD47 x LILRB2, (scFv)2-Fc-(scFv)2, 37-20-B03-based PDL1-BD
B2: PRO5055 (antibody, human IgG1, kappa)
chain: DVQMTQSPSSLSASVGDRVTITCQASQSISSWVSWYQQKPGKPPKLLIYRGGYLESGVPSRFSASGSGTDFTLTISSLQPEDFATYYCQSTDSSTYGGAFGCGTKVTVLGGGGGSGGGGSGGGGSGGGGSQQVVESGGGLVQPGGSLRLSCAVSGIDLNSYAMTWVRQAPGKCLEWIGYIGSASSTYYASWASGRFTISKDNSKNTVYLQMNSLRAEDSAVYFCARGSTYINIWGQGTLVKVSSEPKSSDKTHTCPPCPAPELLGGPSVFLFPPKPKDTLMISRTPEVTCVVVDVSHEDPEVKFNWYVDGVEVHNAKTKPREEQYNSTYRVVSVLTVLHQDWLNGKEYKCKVSNKALPAPIEKTISKAKGQPREPQVYTLPPCREEMTKNQVSLSCAVKGFYPSDIAVEWESNGQPENNYKTTPPVLDSDGSFFLVSKLTVDKSRWQQGNVFSCSVMHEALHNHYTQKSLSLSPGKGGGGSGGGGSDVQMTQSPSSLSASVGDRVTITCQASQSIGSNLAWYQQKPGKPPKLLIYKGGTLESGVPSRFSGSGSGTDFTLTISSLQPEDFATYYCQSTAGSSRSGNYGYVFGCGTKVTVLGGGGGSGGGGSGGGGSGGGGSQQLVESGGGLVQPGGSLRLSCAASGFSFTNNYYMCWVRQAPGKCLEWIACMLVGAWGNTYYASWANGRFTISKDNSKNTVYLQMNSLRAEDSAVYFCARARDYTWTLGGDPETSGFNLWGQGTLVKVSS
heavy: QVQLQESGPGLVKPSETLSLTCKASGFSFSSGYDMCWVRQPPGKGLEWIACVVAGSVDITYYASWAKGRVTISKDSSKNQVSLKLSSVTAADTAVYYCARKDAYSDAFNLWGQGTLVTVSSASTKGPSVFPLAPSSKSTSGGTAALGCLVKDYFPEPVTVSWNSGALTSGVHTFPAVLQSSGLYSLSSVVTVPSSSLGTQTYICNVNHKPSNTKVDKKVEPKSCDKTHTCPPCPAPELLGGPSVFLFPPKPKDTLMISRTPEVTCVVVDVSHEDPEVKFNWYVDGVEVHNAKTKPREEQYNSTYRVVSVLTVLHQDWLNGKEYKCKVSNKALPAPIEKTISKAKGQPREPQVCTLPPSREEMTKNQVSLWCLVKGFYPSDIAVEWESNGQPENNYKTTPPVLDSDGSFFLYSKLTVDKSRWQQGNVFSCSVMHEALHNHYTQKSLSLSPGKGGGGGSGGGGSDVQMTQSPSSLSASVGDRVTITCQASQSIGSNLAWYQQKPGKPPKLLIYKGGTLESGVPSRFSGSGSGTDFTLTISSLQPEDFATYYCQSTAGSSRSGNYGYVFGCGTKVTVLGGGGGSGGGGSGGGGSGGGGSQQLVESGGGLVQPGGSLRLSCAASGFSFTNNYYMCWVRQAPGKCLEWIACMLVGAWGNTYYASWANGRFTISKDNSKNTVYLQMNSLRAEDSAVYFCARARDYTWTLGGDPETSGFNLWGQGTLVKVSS
light: DIQMTQSPSSLSASVGDRVTITCQASQSINDYLAWYQQKPGKAPKLLIYKGGTLASGVPSRFSGSGSGTDFTLTISSLQPEDFATYYCQQGYIITDIDNVFGQGTKVEIKRTVAAPSVFIFPPSDEQLKSGTASVVCLLNNFYPREAKVQWKVDNALQSGNSQESVTEQDSKDSTYSLSSTLTLSKADYEKHKVYACEVTHQGLSSPVTKSFNRGEC
notes: trispecific anti-PDL1 x CD47 x LILRB2; PDL1-BD as Fab; also called PRO4687 with 33-03-G02-based PDL1-BD
B3: PRO5052 (antibody)
chain 1: DVQMTQSPSSLSASVGDRVTITCQASQSISSWVSWYQQKPGKPPKLLIYRGGYLESGVPSRFSASGSGTDFTLTISSLQPEDFATYYCQSTDSSTYGGAFGCGTKVTVLGGGGGSGGGGSGGGGSGGGGSQQVVESGGGLVQPGGSLRLSCAVSGIDLNSYAMTWVRQAPGKCLEWIGYIGSASSTYYASWASGRFTISKDNSKNTVYLQMNSLRAEDSAVYFCARGSTYINIWGQGTLVKVSSEPKSSDKTHTCPPCPAPELLGGPSVFLFPPKPKDTLMISRTPEVTCVVVDVSHEDPEVKFNWYVDGVEVHNAKTKPREEQYNSTYRVVSVLTVLHQDWLNGKEYKCKVSNKALPAPIEKTISKAKGQPREPQVYTLPPCREEMTKNQVSLSCAVKGFYPSDIAVEWESNGQPENNYKTTPPVLDSDGSFFLVSKLTVDKSRWQQGNVFSCSVMHEALHNHYTQKSLSLSPGKGGGGSGGGGSDVQMTQSPSSLSASVGDRVTITCQASQSIGSNLAWYQQKPGKPPKLLIYKGGTLESGVPSRFSGSGSGTDFTLTISSLQPEDFATYYCQSTAGSSRSGNYGYVFGCGTKVTVLGGGGGSGGGGSGGGGSGGGGSQQLVESGGGLVQPGGSLRLSCAASGFSFTNNYYMCWVRQAPGKCLEWIACMLVGAWGNTYYASWANGRFTISKDNSKNTVYLQMNSLRAEDSAVYFCARARDYTWTLGGDPETSGFNLWGQGTLVKVSS
chain 2: not shown
notes: trispecific anti-PDL1 x CD47 x LILRB2, (scFv)2-Fc-(scFv)2; also called PRO4672 with 33-03-G02-based PDL1-BD
B4: PRO3851 (bispecific antibody, human IgG1, kappa, L234A L235A)
heavy 1: not shown
heavy 2: QVQLQESGGGLVQPGGSLRLSCAASAYTISRNSMGWFRQAPGKGLEGVAAIESDGSTSYSDSVKGRFTISLDNSKNTLYLEMNSLRAEDTAVYYCAAPKVGLGPRTALGHLAFMTLPALNYWGQGTLVTVSSGGGGSGGGGSGGGGSGGGGSQVQLQESGGGLVQPGGSLRLSCAASAYTISRNSMGWFRQAPGKGLEGVAAIESDGSTSYSDSVKGRFTISLDNSKNTLYLEMNSLRAEDTAVYYCAAPKVGLGPRTALGHLAFMTLPALNYWGQGTLVTVSSDKTHTCPPCPAPEAAGGPSVFLFPPKPKDTLMISRTPEVTCVVVDVSHEDPEVKFNWYVDGVEVHNAKTKPREEQYNSTYRVVSVLTVLHQDWLNGKEYKCKVSNKALPAPIEKTISKAKGQPREPQVCTLPPSRDELTKNQVSLSCAVKGFYPSDIAVEWESNGQPENNYKTTPPVLDSDGSFFLVSKLTVDKSRWQQGNVFSCSVMHEALHNHYTQKSLSLSPG
light: DIQMTQSPSSVSASVGDRVTITCRASQGISRWLAWYQQKPGKAPKLLIYAASSLQSGVPSRFSGSGSGTDFTLTISSLQPEDFATYYCQQTVSFPITFGGGTKVEIKRTVAAPSVFIFPPSDEQLKSGTASVVCLLNNFYPREAKVQWKVDNALQSGNSQESVTEQDSKDSTYSLSSTLTLSKADYEKHKVYACEVTHQGLSSPVTKSFNRGEC

Tests used:
recombinant human LILRB2 = biological target: T1, recombinant human LILRB2 (human, UniProt Q8N423 22-460, limits assumed); test: SPR, antibody captured by anti-framework IgG, antigen as analyte (without avidity)
T1 construct: also called ILT4
T1 sequence (Q8N423 22-460 limits assumed): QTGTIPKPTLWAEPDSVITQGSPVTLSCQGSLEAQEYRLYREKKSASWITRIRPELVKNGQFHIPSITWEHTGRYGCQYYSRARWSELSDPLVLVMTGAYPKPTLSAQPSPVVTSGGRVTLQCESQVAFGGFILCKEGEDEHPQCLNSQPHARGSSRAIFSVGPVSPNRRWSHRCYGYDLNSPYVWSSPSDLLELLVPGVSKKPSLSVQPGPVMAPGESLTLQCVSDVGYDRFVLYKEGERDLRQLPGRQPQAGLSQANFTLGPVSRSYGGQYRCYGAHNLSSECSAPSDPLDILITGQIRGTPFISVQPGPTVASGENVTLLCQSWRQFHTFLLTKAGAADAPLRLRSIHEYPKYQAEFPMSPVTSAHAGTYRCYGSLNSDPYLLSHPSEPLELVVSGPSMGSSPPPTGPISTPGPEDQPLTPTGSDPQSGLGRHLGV

[1] = biological target: T2, human LILRB2 on the cell surface (human, UniProt Q8N423 22-597); test: cell-based or functional assay
T2 sequence (Q8N423 22-597): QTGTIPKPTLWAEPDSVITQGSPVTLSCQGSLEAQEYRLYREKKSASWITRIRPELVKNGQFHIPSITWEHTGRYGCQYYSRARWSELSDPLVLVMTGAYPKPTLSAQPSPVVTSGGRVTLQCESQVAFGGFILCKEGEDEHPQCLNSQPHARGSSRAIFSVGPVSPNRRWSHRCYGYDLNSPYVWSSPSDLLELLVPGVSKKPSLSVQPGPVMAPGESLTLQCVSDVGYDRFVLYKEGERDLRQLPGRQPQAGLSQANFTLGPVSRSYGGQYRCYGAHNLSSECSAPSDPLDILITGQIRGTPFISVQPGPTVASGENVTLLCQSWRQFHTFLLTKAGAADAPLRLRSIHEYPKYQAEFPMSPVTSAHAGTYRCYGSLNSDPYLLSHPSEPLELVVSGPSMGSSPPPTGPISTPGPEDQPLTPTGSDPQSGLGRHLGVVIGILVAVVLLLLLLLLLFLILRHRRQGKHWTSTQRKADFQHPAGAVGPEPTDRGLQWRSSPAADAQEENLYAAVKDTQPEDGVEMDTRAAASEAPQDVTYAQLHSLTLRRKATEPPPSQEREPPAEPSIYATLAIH

[2] = biological target: T3, human CD47 on the cell surface (human, UniProt Q08722 19-323); test: cell-based or functional assay
[3] = biological target: human PD-L1 on the cell surface (human, UniProt Q9NZQ7 19-290); test: cell-based or functional assay
[4] = biological target: T3, human CD47 on the cell surface; test: cell-based or functional assay; remark: listed apart in the source
recombinant human CD47 = recombinant human CD47 (human, UniProt Q08722 19-139, limits assumed); test: SPR, antigen immobilised, antibody as analyte
recombinant human PDL1 = biological target: T4, recombinant human PDL1 (human, UniProt Q9NZQ7 19-238, limits assumed); test: SPR, antigen immobilised, antibody as analyte
T4 construct: SPR antigen; also called CD274; B7-H1

[5] = biological target: T2, human LILRB2 on the cell surface; test: cell-based or functional assay; remark: listed apart in the source
[6] = biological target: T3, human CD47 on the cell surface; test: cell-based or functional assay; remark: listed apart in the source
[7] = biological target: T5, recombinant cynomolgus PDL1 (cynomolgus monkey, UniProt G7PSE7 19-238); test: SPR, antigen immobilised, antibody as analyte
T5 construct: also called cynom; PDL1
T5 sequence (G7PSE7 entry or part of it): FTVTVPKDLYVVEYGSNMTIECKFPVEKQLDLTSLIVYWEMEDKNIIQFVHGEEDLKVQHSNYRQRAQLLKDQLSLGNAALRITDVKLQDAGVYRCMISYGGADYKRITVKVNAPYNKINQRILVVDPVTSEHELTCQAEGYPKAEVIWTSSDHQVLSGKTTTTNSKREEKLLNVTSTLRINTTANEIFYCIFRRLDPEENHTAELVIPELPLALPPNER

[8] = biological target: T6, recombinant cynomolgus CD47 (cynomolgus monkey, UniProt A0A2K5X523 19-139); test: SPR, antigen immobilised, antibody as analyte
T6 construct: also called cynom; CD47

| Binder | Kd (recombinant human LILRB2) [nM] | koff (recombinant human LILRB2) [s⁻¹] | kon (recombinant human LILRB2) [M⁻¹ s⁻¹] | IL-1β EC50 [nM], LPS-driven cytokine secretion [1] [nM] | IL-6 EC50 [nM], LPS-driven cytokine secretion [1] [nM] | TNF-α EC50 [nM], LPS-driven cytokine secretion [1] [nM] | CD47 driven EC50 [nM], phagocytosis of Nalm6 cells [2] [nM] | PD-L1 driven EC50 [nM], phagocytosis of H292 cells [3] [nM] | CD47 driven EC50 [nM], phagocytosis of H292 cells [4] [nM] | CD47 driven EC50 [nM], phagocytosis of RBCs [4] [nM] | Kd (recombinant human CD47) [nM] | koff (recombinant human CD47) [s⁻¹] | kon (recombinant human CD47) [M⁻¹ s⁻¹] | Kd (recombinant human PDL1) [nM] | koff (recombinant human PDL1) [s⁻¹] | kon (recombinant human PDL1) [M⁻¹ s⁻¹] | CD86 EC50 [nM], re-polarization of M2 macrophages [5] [nM] | CD163 EC50 [nM], re-polarization of M2 macrophages [5] [nM] | CD206 EC50 [nM], re-polarization of M2 macrophages [5] [nM] | CD47 driven EC50 [nM], phagocytosis of A375 cells [6] [nM] | further results |
| --- | --- | --- | --- | --- | --- | --- | --- | --- | --- | --- | --- | --- | --- | --- | --- | --- | --- | --- | --- | --- | --- |
| B1 | 0.37 | 8.9e-05 | 240000 | 0.096 | 0.078 | 0.123 | 15.3 | 0.32 | 8.32 | 39.4 | 57.2 | 0.0256 | 448000 | 0.12 | 0.000126 | 1.05e+06 | 0.079 | 0.067 | 0.12 |  |  |
| B2 | 0.35 | 9.2e-05 | 260000 | 0.0705 | 0.063 | 0.141 |  | 0.19 | 10.9 | 44.6 | 21 | 0.011 | 510000 | 0.016 | 3.3e-05 | 2.2e+06 | 0.085 | 0.058 | 0.128 | 12.1 | Kd [7]: 0.0084 nM; Kd [8]: 21 nM |
| B3 | 0.19 | 5.4e-05 | 290000 | 0.082 | 0.077 | 0.117 |  | 0.2 | 10.9 | 39.8 | 34 | 0.022 | 660000 | 0.013 | 2.9e-05 | 2.3e+06 | 0.082 | 0.073 | 0.134 | 19.3 | Kd [7]: 0.012 nM; Kd [8]: 32 nM |
| B4 |  |  |  |  |  |  | 0.99 |  | 1.82 | 3 |  |  |  |  |  |  |  |  |  | 0.9 |  |
